Experimental findings from the RNAGym collection of RNA variant scans (doi:10.1073/pnas.2313332121) are described below.

Variants at the floor of the assay were thinned out. Some results are limits rather than exact numbers.

To fix the notation:
B1: TPR 5TU (parent)
chain: GGAUCUUCUCGAUCUAACAAAAAAGACAAAUCUGCCACAAAGCUUGAGAGCAUCUUCGGAUGCAGAGGCGGCAGCCUUCGGUGGCGCGAUAGCGCCAACGUUCUCAACUAUGACACGCAAAACGCGUGCUCCGUUGAAUGGAGUUUAUCAUG

This data set covers variants of B1. Nature of the data set: polymerase ribozyme fitness, log enrichment relative to wild type (log ratio); higher = more active; in vitro selection for triplet polymerase activity. In short, it runs like this: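 To select mutant libraries of each subunit of a heterodimeric triplet polymerase ribozyme, built by PCR and transcribed, each was annealed with a biotinylated primer, partner subunit and triplets, then incubated frozen at −7 °C. Extended constructs were gel-excised, captured on streptavidin beads and amplified by RT-PCR, in one round carried out in triplicate. Illumina sequencing of input and output libraries kept genotypes with ≥10 input reads and ≥1 read per output. Fitness is the base-2 logarithm of genotype enrichment relative to wild-type enrichment, from inverse-variance-weighted replicate averages.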
As for G88A C149U, the “polymerase ribozyme fitness (log ratio)” value was -4.04.
As for A89U C103U A106C G117A, the “polymerase ribozyme fitness (log ratio)” value was -2.14.
Consider A91U A147G, for which the “polymerase ribozyme fitness (log ratio)” value was no more than -4.2.
As to A91U A97G, the “polymerase ribozyme fitness (log ratio)” value is -3.67.
For C87A U144C, the “polymerase ribozyme fitness (log ratio)” value was no more than -4.2.
Regarding C87A U144G, the “polymerase ribozyme fitness (log ratio)” value was -3.92.
As to C87U U109C, the “polymerase ribozyme fitness (log ratio)” value is -3.46.
The same measure for C87U G92C: -0.38; for C87U G100U C114U: no more than -4.2.
Consider A89U U148G, for which the “polymerase ribozyme fitness (log ratio)” value was -3.92.
The same measure for A89U A91U C93U C95A: no more than -4.2.
The same measure for C87U U146G: -0.864.
With A91G C118U A121U A122U G124A, the “polymerase ribozyme fitness (log ratio)” value is -3.56.
As for A89C A97U U101G A110G U134G G141A, the “polymerase ribozyme fitness (log ratio)” value was no more than -4.2.
The same measure for A89G C99G U102A C123G U135C U145G: no more than -4.2; for A89U U102G A122C: -3.7.
For A91C U139G, the “polymerase ribozyme fitness (log ratio)” value is no more than -4.2.
On to G88C C95U, for which the “polymerase ribozyme fitness (log ratio)” value was no more than -4.2.
In the case of A89G C131A, the “polymerase ribozyme fitness (log ratio)” value was -2.5.
For the variant A91U A115U C118A C131G A138G, the “polymerase ribozyme fitness (log ratio)” value is no more than -4.2.
Regarding C87U G133U, the “polymerase ribozyme fitness (log ratio)” value was -2.95.
For G92A, the “polymerase ribozyme fitness (log ratio)” value is -2.51.
Consider G92C, for which the “polymerase ribozyme fitness (log ratio)” value is -0.459.
As to A91C G112C U146A, the “polymerase ribozyme fitness (log ratio)” value was no more than -4.2.
As for G92A A115C, the “polymerase ribozyme fitness (log ratio)” value was -3.48.
For A89C C99U C114U, the “polymerase ribozyme fitness (log ratio)” value was -2.63.
In the case of A91C C96A A120U A122C G143U, the “polymerase ribozyme fitness (log ratio)” value is -4.07.
As for G88U A106G, the “polymerase ribozyme fitness (log ratio)” value was -3.91.
With U90A C99U C103G G140A, the “polymerase ribozyme fitness (log ratio)” value is no more than -4.2.
Regarding C87U C132U, the “polymerase ribozyme fitness (log ratio)” value is -1.11.
For the variant C87U C132G, the “polymerase ribozyme fitness (log ratio)” value is -3.72.
The same measure for G92A U127A: -3.83.
In the case of G92A U127G, the “polymerase ribozyme fitness (log ratio)” value was -3.27.
The same measure for C87A U90G U134G: no more than -4.2; for A91G A113C U127C U146G: no more than -4.2.
With U90A G94U C95U C116G C118G C123G, the “polymerase ribozyme fitness (log ratio)” value is no more than -4.2.
As for C87U C96G A113U, the “polymerase ribozyme fitness (log ratio)” value is -2.85.
Consider A89C C93G C96U U148G, for which the “polymerase ribozyme fitness (log ratio)” value is no more than -4.2.
As to A91U G141A U144G, the “polymerase ribozyme fitness (log ratio)” value was no more than -4.2.
On to A89U A121U, for which the “polymerase ribozyme fitness (log ratio)” value was -0.72.
The same measure for A89C C95U: -1.49; for A89C C95G: -3.24.
Regarding A91C G126A, the “polymerase ribozyme fitness (log ratio)” value is -4.03.
C87U C96U C125U U144A: the “polymerase ribozyme fitness (log ratio)” value is -2.68.
As for A89U U127C G136C A137C, the “polymerase ribozyme fitness (log ratio)” value was -4.13.
As to U90G G124C, the “polymerase ribozyme fitness (log ratio)” value is no more than -4.2.
With G88A G117U, the “polymerase ribozyme fitness (log ratio)” value is -3.84.
In the case of U90G C96A C131G, the “polymerase ribozyme fitness (log ratio)” value is no more than -4.2.
Regarding U90C C95A U102A C132A, the “polymerase ribozyme fitness (log ratio)” value was no more than -4.2.
The same measure for A89U G92C G94U G141A: -3.94; for A89U G94C A98G A150G: -2.68.
For C87G C149U, the “polymerase ribozyme fitness (log ratio)” value is no more than -4.2.
On to C87U U151G, for which the “polymerase ribozyme fitness (log ratio)” value was -3.96.
As for G92A G124C, the “polymerase ribozyme fitness (log ratio)” value is -3.03.
The same measure for A91G A120G: -2.98.
Turning to C87G A142G, the “polymerase ribozyme fitness (log ratio)” value is -4.14.
On to C87G C116U, for which the “polymerase ribozyme fitness (log ratio)” value was -3.77.
In the case of A91G G143C, the “polymerase ribozyme fitness (log ratio)” value was -3.43.
The same measure for C87G G92C C125U U127G U135G G141C: no more than -4.2; for G88A A110G A122U: -3.97; for C87U C118G: -1.33.
As for G92A C108U, the “polymerase ribozyme fitness (log ratio)” value is no more than -4.2.
For U90C U104A, the “polymerase ribozyme fitness (log ratio)” value was -4.11.
The same measure for A91G A98U: -3.95.
With G88U C96U G124C G136U, the “polymerase ribozyme fitness (log ratio)” value is no more than -4.2.
Regarding U90A G92C A142G, the “polymerase ribozyme fitness (log ratio)” value was no more than -4.2.
The same measure for C87U G140U: -3.68; for C87G G152U: -3.57; for G88C C105G G128C A142C: no more than -4.2.
On to A91G C131A A137C G143C, for which the “polymerase ribozyme fitness (log ratio)” value is no more than -4.2.
The same measure for C87G G141C: -3.99.
For the variant A89G G94A G100C, the “polymerase ribozyme fitness (log ratio)” value is no more than -4.2.
On to A91G U130G, for which the “polymerase ribozyme fitness (log ratio)” value is no more than -4.2.
Take U90A C125G A147C U148C: the “polymerase ribozyme fitness (log ratio)” value was -3.99.
For G88A U144G, the “polymerase ribozyme fitness (log ratio)” value was -3.35.
The same measure for A91U C108U A113U C118U C149G: no more than -4.2.
The same measure for U90C C99G A138G: no more than -4.2; for A89G A122C: -1.77; for C87G A110C U146G C149A: no more than -4.2.
With G92A A120G A121C U148C, the “polymerase ribozyme fitness (log ratio)” value is -4.16.
In the case of A89C C123A G128U, the “polymerase ribozyme fitness (log ratio)” value was -3.31.
As for A89G G126U U148G, the “polymerase ribozyme fitness (log ratio)” value was -4.06.
Regarding A89U A142C U146C A150U, the “polymerase ribozyme fitness (log ratio)” value was -3.99.
The same measure for U90C G94U G124A C125U: -4.
